Test results as given in publication PMC11330416.
Values joined by “and” are separate entries in the source; they are usually repeats but may differ in a detail not shown here. Equal entries are not always repeated.

Key:
[1] = target: biotinylated human angiotensin-converting enzyme 2 reference material ACE2-1 (human) (UniProt Q9BYF1); experiment: SPR; ACE2-1 immobilised by its biotin on streptavidin on a biotin-coated Au chip (250-300 RU), blocked with 10 uM BSA; spike analyte in a twofold series of 12.5-200 nM at 50 uL/min, about 90 s association, 30-45 min dissociation; 10 mM HEPES pH 7-7.4, 150 mM NaCl, 3 mM EDTA, 0.05% Tween-20; 1:1 binding model; averages of two independent experiments
[2] = target: SARS-CoV-2 Omicron BA.4/5 spike protein reference material OMIC-1 (SARS-CoV-2 (Omicron BA.4/BA.5) | human) (UniProt P0DTC2); experiment: SEC-MALS; Waters BEH SEC 4.6 x 150 mm column (200 A for ACE2-1, 450 A for OMIC-1), DPBS with 0.02% Tween-20, pH 7.4, 0.4 mL/min; UV at 280 nm, MALS and RI detection; relative amounts of species from SEC-UV

biotinylated human angiotensin-converting enzyme 2 reference material ACE2-1 (human), sequence (Q9BYF1 20-614): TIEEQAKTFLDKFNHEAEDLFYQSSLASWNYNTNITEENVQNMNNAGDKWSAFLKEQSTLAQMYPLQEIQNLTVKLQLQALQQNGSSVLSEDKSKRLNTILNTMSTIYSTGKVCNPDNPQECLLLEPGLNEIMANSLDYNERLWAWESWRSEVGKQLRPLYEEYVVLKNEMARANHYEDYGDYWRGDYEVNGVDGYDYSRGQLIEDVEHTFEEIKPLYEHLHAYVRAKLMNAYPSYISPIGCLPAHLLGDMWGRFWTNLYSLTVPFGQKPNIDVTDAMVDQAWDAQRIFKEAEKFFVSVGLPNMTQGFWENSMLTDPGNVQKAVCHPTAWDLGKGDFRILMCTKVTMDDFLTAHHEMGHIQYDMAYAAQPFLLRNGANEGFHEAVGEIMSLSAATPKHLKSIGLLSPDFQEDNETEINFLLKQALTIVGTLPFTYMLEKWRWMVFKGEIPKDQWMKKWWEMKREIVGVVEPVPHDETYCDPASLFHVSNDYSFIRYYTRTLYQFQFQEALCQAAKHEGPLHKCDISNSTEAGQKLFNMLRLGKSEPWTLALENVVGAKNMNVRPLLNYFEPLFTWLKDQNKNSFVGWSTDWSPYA

SARS-CoV-2 Omicron BA.4/5 spike protein reference material OMIC-1 (from UniProt P0DTC2 14-1213)
Kd [1]: 4.4 nM | percent in higher molecular weight oligomers (SEC-UV) [2]: 14% | percent in the trimeric form (SEC-UV) [2]: 82% | stoichiometry N [2]: 3 and 6
